From US20080279864A1 (Johns Hopkins, published 2008)
Ends that are not written are not given here.

B1: NTB (1-44)-CFP (other)
chain: MVRFGDELGGRYGGPGGGERARGGGAGGAGGPGPGGLQPGQRVL-{ECFP}
modifications: also: ECFP fused C-terminally, linker not given here
notes: not shown: ECFP fused C-terminal to the test molecule
B2: NTB-CFP (other)
chain: MVRFGDELGGRYGGPGGGERARGGGAGGAGGPGPGGLQPGQRVLYKQSIAQRARTMALYNPIPVKQNCFTVNRSLFVFSEDNVVRKYAKRITEWP
notes: also called NTB-CFP peptide; NTB (1-95) in FRET; not shown: ECFP fused C-terminal to the test molecule
B3: NTB (56-95)-CFP (other)
chain: MALYNPIPVKQNCFTVNRSLFVFSEDNVVRKYAKRITEWP-{ECFP}
modifications: also: ECFP fused C-terminally, linker not given here
notes: as for B1
B4: I-IIB(357-397)-pGADT7 (other, human, UniProt Q00975 357-397, looked up, not shown: large carriers)
chain: GEFAKERERVENRRAFLKLRRQQQIERELNGYLEWIFKAEE
notes: range 357-397; Yeast two-hybrid fusion; GAL4 domain placed first by the vector's design; Equating this segment with the 'N-terminal third' of the text is an inference; also called N-terminal third of the I-IIB loop; NH3-terminal third of the I-IIB loop
B5: I-IIB(357-482)-pGADT7 (I-II loop of α1B fused to the GAL4 activation domain) (other, human, UniProt Q00975 357-482, looked up, not shown: large carriers)
chain: GEFAKERERVENRRAFLKLRRQQQIERELNGYLEWIFKAEEVMLAEEDRNAEEKSPLDVLKRAATKKSRNDLIHAEEGEDRFADLCAVGSPFARASLKSGKTESSSYFRRKEKMFRFFIRRMVKAQ
notes: range 357-482; Yeast two-hybrid fusion; GAL4 domain placed first by the vector's design; also called I-IIB (pGADT7)
B6: I-IIB(436-482)-pGADT7 (other, human, UniProt Q00975 436-482, looked up, not shown: large carriers)
chain: DRFADLCAVGSPFARASLKSGKTESSSYFRRKEKMFRFFIRRMVKAQ
notes: range 436-482; Yeast two-hybrid fusion; GAL4 domain placed first by the vector's design
B7: I-IIB(357-482)-pGBKT7 (I-II loop of α1B fused to the GAL4 binding domain) (other, UniProt P04386 1-147, looked up)
chain: MKLLSSIEQACDICRLKKLKCSKEKPKCAKCLKNNWECRYSPKTKRSPLTRAHLTEVESRLERLEQLFLLIFPREDLDMILKMDSLQDIKALLTGLFVQDNVNKDAVTDRLASVETDMPLTLRQHRISATSSSEESSNKGQRQLTVSGEFAKERERVENRRAFLKLRRQQQIERELNGYLEWIFKAEEVMLAEEDRNAEEKSPLDVLKRAATKKSRNDLIHAEEGEDRFADLCAVGSPFARASLKSGKTESSSYFRRKEKMFRFFIRRMVKAQ
notes: Yeast two-hybrid fusion; GAL4 domain placed first by the vector's design; also called I-IIB (pGBKT7)
B8: NTB(1-95)-pGBKT7 (NH3 terminus of α1B fused to the GAL4 binding domain) (other)
chain: MKLLSSIEQACDICRLKKLKCSKEKPKCAKCLKNNWECRYSPKTKRSPLTRAHLTEVESRLERLEQLFLLIFPREDLDMILKMDSLQDIKALLTGLFVQDNVNKDAVTDRLASVETDMPLTLRQHRISATSSSEESSNKGQRQLTVSMVRFGDELGGRYGGPGGGERARGGGAGGAGGPGPGGLQPGQRVLYKQSIAQRARTMALYNPIPVKQNCFTVNRSLFVFSEDNVVRKYAKRITEWP
notes: Yeast two-hybrid fusion; GAL4 domain placed first by the vector's design; also called NTB (pGBKT7); full-length NTB
B9: pGADT7 (empty vector; the isolated GAL4 activating domain itself) (other, UniProt P04386 768-881, looked up)
chain: ANFNQSGNIADSSLSFTFTNSSNGPNLITTQTNSQALSQPIASSNVHDNFMNNEITASKIDDGNNSKPLSPGWTDQTAYNAFGITTGMFNTTTMDDVYNYLFDDEDTPPNPKKE
notes: also called empty pGADT7
B10: lam-pGBKT7 (lamin C attached to the GAL4 binding domain) (other, UniProt P04386 1-147, looked up)
chain: MKLLSSIEQACDICRLKKLKCSKEKPKCAKCLKNNWECRYSPKTKRSPLTRAHLTEVESRLERLEQLFLLIFPREDLDMILKMDSLQDIKALLTGLFVQDNVNKDAVTDRLASVETDMPLTLRQHRISATSSSEESSNKGQRQLTVSSEEVVSREVSGIKAAYEAELGDARKTLDSVAKERARLQLELSKVREEFKELKARNTKKEGDLIAAQARLKDLEALLNSKEAALSTALSEKRTLEGELHDLRGQVAKLEAALGEAKKQLQDEMLRRVDAENRLQTMKEELDFQKNIYSEELRETKRRHETRLVEID
B11: NTB(1-55)-pGBKT7 (other)
chain: MKLLSSIEQACDICRLKKLKCSKEKPKCAKCLKNNWECRYSPKTKRSPLTRAHLTEVESRLERLEQLFLLIFPREDLDMILKMDSLQDIKALLTGLFVQDNVNKDAVTDRLASVETDMPLTLRQHRISATSSSEESSNKGQRQLTVSMVRFGDELGGRYGGPGGGERARGGGAGGAGGPGPGGLQPGQRVLYKQSIAQRART
notes: Yeast two-hybrid fusion; GAL4 domain placed first by the vector's design
B12: I-IIB(398-435)-pGADT7 (other, human, UniProt Q00975 398-435, looked up, not shown: large carriers)
chain: VMLAEEDRNAEEKSPLDVLKRAATKKSRNDLIHAEEGE
notes: range 398-435; Yeast two-hybrid fusion; GAL4 domain placed first by the vector's design

Columns and labels:
[1] = target: T1, I-IIB-YFP (human, UniProt Q00975 357-482); assay: FRET two-hybrid in HEK293 cells
T1 construct: range 357-482; also called I-IIB in FRET; not shown: EYFP fused C-terminal to the test molecule

[2] = target: T1, I-IIB-YFP; assay: FRET two-hybrid in HEK293 cells (three-cube FRET and YFP photobleaching)
[3] = target: B10; assay: yeast two-hybrid control against lamin C, % of colonies surviving on high stringency plates, mean ± SEM
[4] = target: T2, NTC(1-153)-pGBKT7 (NH3 terminus of α1C fused to the GAL4 binding domain) (rabbit, UniProt P04386 1-147; P15381 1-153); assay: yeast two-hybrid
T2 construct: Yeast two-hybrid fusion; GAL4 domain placed first by the vector's design; also called NTC (pGBKT7)

[5] = target: T3, Gβ1 fused to the GAL4 activation domain (Gβ1 in pGADT7) (UniProt P62871 1-340); assay: yeast two-hybrid, Gβ1 in pGADT7 against I-IIB in pGBKT7
T3 construct: Yeast two-hybrid fusion; GAL4 domain placed first by the vector's design; also called Gβ1 (pGADT7); Gβ1/pGADT7
T3 sequence (P62871 whole entry, the tested form may be a part): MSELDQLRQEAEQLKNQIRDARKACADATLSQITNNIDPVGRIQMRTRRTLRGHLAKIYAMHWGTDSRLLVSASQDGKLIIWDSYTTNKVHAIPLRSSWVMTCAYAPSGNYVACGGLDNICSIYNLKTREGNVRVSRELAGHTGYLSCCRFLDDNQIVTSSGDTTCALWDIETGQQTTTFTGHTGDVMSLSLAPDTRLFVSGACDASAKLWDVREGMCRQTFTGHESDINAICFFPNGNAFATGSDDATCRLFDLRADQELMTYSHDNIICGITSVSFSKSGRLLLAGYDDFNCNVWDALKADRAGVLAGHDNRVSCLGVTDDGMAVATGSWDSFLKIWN

[6] = target: T3, Gβ1 fused to the GAL4 activation domain …; assay: yeast two-hybrid
[7] = target: T4, CTC(1525-1670)pGBKT7 (proximal third of the α1C COOH terminus fused to the GAL4 binding domain) (rabbit, UniProt P04386 1-147; P15381 1525-1670); assay: yeast two-hybrid auto-activation control (empty pGADT7), % of colonies surviving on high stringency plates, mean ± SEM
T4 construct: Yeast two-hybrid fusion; GAL4 domain placed first by the vector's design; also called CTC (pGBKT7)

[8] = target: T5, CTA(1763-1928)pGBKT7 (proximal COOH terminus of the P/Q-type α1A subunit fused to the GAL4 binding domain) (UniProt P04386 1-147); assay: as above
T5 construct: Yeast two-hybrid fusion; GAL4 domain placed first by the vector's design

[9] = target: B8; assay: as above
[10] = target: B11; assay: as above
[11] = target: T2, NTC(1-153)-pGBKT7 (NH3 terminus of α1C …); assay: as above
[12] = target: T6, NTA(2-100)pGBKT7 (NH3 terminus of the P/Q-type α1A subunit fused to the GAL4 binding domain) (UniProt P04386 1-147); assay: as above
T6 construct: Yeast two-hybrid fusion; GAL4 domain placed first by the vector's design

[13] = target: T7, NTB(45-95)-pGBKT7 (human, UniProt P04386 1-147 (Saccharomyces cerevisiae entry)); assay: as above
T7 construct: Yeast two-hybrid fusion; GAL4 domain placed first by the vector's design

[14] = target: T8, NTB(Δ45-55)-pGBKT7 (human, UniProt Q00975 1-95); assay: as above
T8 construct: Yeast two-hybrid fusion; GAL4 domain placed first by the vector's design; also called NTB peptide lacking residues 45-55

[15] = target: T4, CTC(1525-1670)pGBKT7 (proximal third of …); assay: yeast two-hybrid auto-activation control (empty pGADT7), filter lift β-galactosidase assay, % of colonies turning blue, mean ± SEM
[16] = target: T5, CTA(1763-1928)pGBKT7 (proximal COOH …); assay: as above
[17] = target: B8; assay: as above
[18] = target: B11; assay: as above
[19] = target: T2, NTC(1-153)-pGBKT7 (NH3 terminus of α1C …); assay: as above
[20] = target: T6, NTA(2-100)pGBKT7 (NH3 terminus of the …); assay: as above
[21] = target: T7, NTB(45-95)-pGBKT7; assay: as above
[22] = target: T8, NTB(Δ45-55)-pGBKT7; assay: as above
[23] = target: T3, Gβ1 fused to the GAL4 activation domain …; assay: yeast two-hybrid, background control

B1: no binding [1].

B2: binds [2].

B3: binds [1].

For B4, the “High Stringency (%)” value [3] was 0%.

For B5, the binding result [4] was “no binding” and the “High Stringency (%)” value [3] was 0.74%.

B6 was tested, and the “High Stringency (%)” value [3] was 0%.

B7: binds [5].

B8: binds [6].

With B9 the “High Stringency (%)” value [7] was 0%, the “High Stringency (%)” value [8] was 0.1% and the “High Stringency (%)” value [9] was 0.34%. The “High Stringency (%)” value [10] was 3.84%, the “High Stringency (%)” value [11] was 1% and the “High Stringency (%)” value [12] was 0%. The “High Stringency (%)” value [13] was 0%, the “High Stringency (%)” value [14] was 0.56% and the “Filter Lift Assay (%)” value [15] was 0%. For the same binder, the “Filter Lift Assay (%)” value [16] was 0%, the “Filter Lift Assay (%)” value [17] was 0.14% and the “Filter Lift Assay (%)” value [18] was 1.56%. For the same binder, the “Filter Lift Assay (%)” value [19] was 0%, the “Filter Lift Assay (%)” value [20] was 0.82% and the “Filter Lift Assay (%)” value [21] was 0%. The “Filter Lift Assay (%)” value [22] was 2.5%.

B10: no binding [23].

B11: binds [6].

With B12 the “High Stringency (%)” value [3] was 0.04%.
